Test results reported in the supplement of paper PMC10567573.

B1: ESRRG (parent)
chain: YSCPATNECEITKRRRKSCQACRF

Variants of: B1
Assay: protein stability index of a GFP-peptide fusion (GPS, HEK-293T) (PSI 1-6); higher = more stable
Details: c terminus: a fixed tail appended
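Note: lentivirally expressed fusions sorted by FACS into six bins by GFP to DsRed ratio, PSI derived from sequencing read proportions per bin multiplied by bin number.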

Protein stability index, by site and new letter:
Y1: L 4.09, P 4.32, V 3.93, N 4.29, A 4.13, W 3.11, K 3.92, S 4.28, R 4.21, C 4.88, T 4.35, I 3.6, Q 4.19, H 3.8, E 4.13, D 4.05, F 3.36, G 4.02, M 4.2
C3: P 3.58, V 4.16, G 3.44, H 2.7, Y 3.81, Q 3.62, N 3.79, I 3.37, S 3.56, W 2.83, F 3.12, T 3.99, R 3.05, L 3.53, K 3.83, E 4.09, A 4.23, D 3.72, M 3.55
K13: E 3.45, H 3.44, F 2.67, D 3.68, P 3.46, I 3.15, M 3.15, C 3.56, A 3.28, N 3.43, G 3.16, L 3.15
E10: H 3.08, W 2.22, S 3.14, V 2.66, A 3.27, R 3.44, M 2.9, F 2.53, T 3.27, L 3.06, G 3.23, C 3.06, K 3.41, I 2.8, P 3.09, Q 3.59, D 3.34, N 3.41, Y 2.39
S2: E 4.1, G 3.58, T 2.85, R 4.17, Q 2.55, C 2.52, L 2.96, I 1.92, H 2.47, Y 2.89, M 3.27, K 3.15, A 2.1, F 3, P 2.98, N 3.4, D 3.87, W 2.33, V 2.23
I11: E 3.95, G 3.47, M 3.14, K 3.25, F 3.26, A 3.39, P 3.58, L 2.88, Y 3.04, S 3.63, C 3.83, R 3.37, T 3.69, V 3.25, W 3.44, D 3.41, Q 3.51, H 4.47, N 3.55
T6: K 3.72, E 3.37, R 3.46, N 4.04, L 3.1, D 3.71, W 2.26, F 2.47, A 3.13, C 3.76, V 3.1, S 3.1, M 3.38, Q 3.42, I 3.31, P 2.2, G 3.65, H 3.65, Y 2.29
T12: M 2.97, V 3.33, R 3.56, N 3.59, W 2.31, P 3.86, S 3.46, Q 3.25, K 3.27, E 3.75, H 4.38, F 2.19, D 3.74, L 2.71, A 3.32, C 3.85, Y 2.69, G 3.41, I 2.69
E8: R 3.13, W 1.96, P 3.26, M 2.88, A 3.46, C 3.12, T 3.25, Y 2.32, Q 3.52, G 3.54, L 3.02, V 3.05, D 2.92, H 3.14, I 2.87, K 3.14, N 3.29, S 2.97, F 1.91
C9: V 3.46, W 2.54, S 3.66
